Patent publication US20210355185A1

Biological target: IL-12 receptors (human) (UniProt P42701)
Assay: cell-based or functional assay

Sequence of IL-12 receptors (human) (Q99665 24-862, chain 2 of 2, other chains not shown): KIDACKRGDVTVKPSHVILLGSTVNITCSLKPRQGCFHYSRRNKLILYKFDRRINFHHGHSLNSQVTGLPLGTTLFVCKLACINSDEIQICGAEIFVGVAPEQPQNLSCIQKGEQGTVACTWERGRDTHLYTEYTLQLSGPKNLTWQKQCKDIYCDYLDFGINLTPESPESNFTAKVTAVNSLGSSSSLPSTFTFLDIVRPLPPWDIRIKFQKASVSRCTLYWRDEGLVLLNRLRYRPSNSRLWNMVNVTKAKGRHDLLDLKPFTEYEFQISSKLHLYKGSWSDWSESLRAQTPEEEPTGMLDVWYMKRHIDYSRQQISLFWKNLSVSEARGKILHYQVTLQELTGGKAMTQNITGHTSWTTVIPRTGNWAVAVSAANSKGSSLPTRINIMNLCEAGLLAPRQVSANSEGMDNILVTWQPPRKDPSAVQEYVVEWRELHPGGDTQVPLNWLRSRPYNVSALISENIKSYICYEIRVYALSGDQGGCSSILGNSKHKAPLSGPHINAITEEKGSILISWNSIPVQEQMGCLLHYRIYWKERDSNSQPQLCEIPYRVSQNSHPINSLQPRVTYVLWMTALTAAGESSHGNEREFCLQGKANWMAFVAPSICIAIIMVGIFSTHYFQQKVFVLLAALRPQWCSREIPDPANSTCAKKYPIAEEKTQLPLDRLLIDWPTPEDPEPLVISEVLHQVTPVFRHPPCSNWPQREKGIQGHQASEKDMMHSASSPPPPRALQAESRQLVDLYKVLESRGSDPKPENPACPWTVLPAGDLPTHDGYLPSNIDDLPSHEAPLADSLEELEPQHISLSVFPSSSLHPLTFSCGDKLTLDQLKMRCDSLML

Substance | reduction in potency (EC50 for STAT4 phosphorylation) relative to WT IL-12-Fc XENP27201
IL-12-Fc fusion comprising IL-12p35(D55Q/N151D) (from UniProt P29460 23-328; P29459 23-219) | 2 fold
IL-12-Fc fusion comprising IL-12p35(E153Q) (from UniProt P29460 23-328; P29459 23-219) | > 2 fold
IL-12-Fc fusion comprising IL-12p40(E235Q) (from UniProt P29460 23-328; P29459 23-219) | > 2 fold
